Source: PMC3510498
One block for each substance: values may come before it.

Tests used:
[1] = target: Thermoanaerobacter tengcongensis RecO (Thermoanaerobacter tengcongensis MB4) (UniProt Q8RB48); assay: SPR; Biacore3000, 25°C; TTERecO amine-coupled to CM5 chip (4900 RU); TTERecR and mutants injected (0.0125-4 µM), 20 mM HEPES pH 7.4, 200 mM NaCl, 0.005% Tween 20; 1:1 Langmuir model; apparent KD
[2] = target: TTERecR_(1-166) C-terminal deletion mutant (Thermoanaerobacter tengcongensis MB4) (UniProt Q8RDI4); assay: SEC; Superdex-200, 0.5 ml/min, 50 mM Tris-HCl pH 7.5, 300 mM NaCl, 200 µg/ml, absorbance at 280 nm
[3] = target: TTERecR_(1-180) C-terminal deletion mutant (Thermoanaerobacter tengcongensis MB4) (UniProt Q8RDI4); assay: as above
[4] = target: TTERecR_(16-196) N-terminal deletion mutant (Thermoanaerobacter tengcongensis MB4) (UniProt Q8RDI4); assay: as above
[5] = target: Thermoanaerobacter tengcongensis RecR, full-length (Thermoanaerobacter tengcongensis MB4) (UniProt Q8RDI4); assay: SEC + AUC; SEC: Superdex-200, 0.5 ml/min, 50 mM Tris-HCl pH 7.5, 300 mM NaCl, 200 µg/ml; AUC: 20°C, 1 mg/ml in 5 mM Tris-HCl pH 7.5, 50 mM NaCl, 60 000 rpm (TTERecR, TTERecO) or 55 000 rpm (TTERecOR complex), SEDFIT
[6] = target: Thermoanaerobacter tengcongensis RecO (Thermoanaerobacter tengcongensis MB4) (UniProt Q8RB48); assay: as above

Kd [1]: 359 nM
stoichiometry N [2]: 2
Substance: TTERecR_(1-166) C-terminal deletion mutant (from UniProt Q8RDI4 1-166) (domain or fragment)

Kd [1]: 1480 nM
stoichiometry N [3]: 2
Substance: TTERecR_(1-180) C-terminal deletion mutant (from UniProt Q8RDI4 1-180) (domain or fragment)

stoichiometry N [4]: 2
Substance: TTERecR_(16-196) N-terminal deletion mutant (from UniProt Q8RDI4 16-196) (domain or fragment)

Kd [1]: 186 nM
stoichiometry N [5]: 2
stoichiometry N (RecR per RecO) [6]: 2
Substance: Thermoanaerobacter tengcongensis RecR, full-length (from UniProt Q8RDI4 1-199) (natural protein)
